In doi:10.1101/2023.08.30.554051:

Molecular target: human skeletal myosin IIa subfragment-1 (S1), oligonucleotide-labeled, on DNA origami-based thick filament (human)
Experiment: high-speed atomic force microscopy

duty ratio: 0.87 | mean detachment time: 0.17 s | time constant of the attachment time: 1.1 s | time constant of the detachment time (fast): 0.063 s | time constant of the detachment time (slow): 0.68 s
Substance: actin filament (from UniProt P68135 1-377) (natural protein)
